The results in this text go back to article PMC3332083 (Biochemistry, 2012).

As a reminder, the stoichiometry N is a count of units in the complex or per binding partner.

The series “SEC” deals with the molecule itself. Kind of series: SEC. A general note: SEC sorts molecules by how far they enter the pores of the column.
The series “dynamic light scattering” concerns the molecule itself. Kind of series: dynamic light scattering.

B1: Serum amyloid A isoform SAA2.2 from the CE/J mouse strain, full-length (103 amino acids) (natural protein, mouse (CE/J strain), UniProt P05367 20-122, looked up)
chain: GFFSFVHEAFLGAGDMWRAYTDMKEAGWKDGDKYFHARGNYDAAQRGPGGVWAAEKISDGREAFQEFFGRGHEDTMADQEANRHGRSGKDPNYYRPPGLPDKY
In the case of B1, the “stoichiometry N” value in “SEC” turned out to be 8 subunits.

B2: Carboxy-terminal truncated SAA2.2 (SAA2.2ΔC), truncated after the ninetieth amino acid residue (domain or fragment, mouse (CE/J strain), UniProt P05367 20-109, looked up)
chain: GFFSFVHEAFLGAGDMWRAYTDMKEAGWKDGDKYFHARGNYDAAQRGPGGVWAAEKISDGREAFQEFFGRGHEDTMADQEANRHGRSGKD
Turning to B2, the “stoichiometry N” value in the series “dynamic light scattering” lay within 70 to 170 subunits.
